{"source": "the DeepSol protein solubility set"}
{"test": "soluble on expression in E. coli; label from the status in PepcDB or PDB records"}
{"sequence": "MISVTDLRPGTKVKMDGGLWECVEYQHQKLGRGGAKVVAKFKNLETGATVERTFNSGEKLEDIYVETRELQYLYPEGEEMVFMDLETYEQFAVPRSRVVGAEFFKEGMTALGDMYEGQPIKVTPPTVVELKVVDTPPGVRGDTVSGGSKPATLETGAVVQVPLFVEPGEVIKVDTRTGEYVGRA", "soluble on expression in E. coli": "soluble"}
{"sequence": "MKIRYKFGVWMLCLMFPALVWAENAKSICTSFTQQGRQVTFHLADSAALQLQLCSPSVVRIWFSPDGKLQRRNASFAVINEELEDVGTVHVDEQAACYEIFTSKLRIRVNKSPMSIQIFDKYQKLLFSDYADKGHVSEGTKKVEYKTLRRDEHFFGLGEKTGKMDRRGESYKMWNSDKPCYSVVEDPLYKSIPFFMSSYRYGIFLDNTYKTEFKFGTESRDYYSFEAPDGEMIYYFIFGKDYKEILSQYVGLTGKPIMPPKWALGFAQCRGLLTSEKLSREIAEGYRTRGIPCDIIYQDIGWTEHLQDFEWRKGNYGHPKKMLADLKEMGFKVVVSQDPVISQANKKQWEEADRLGYFVKDSTNGKSYDMPWPWGGNCGVVDFTLPAVADWWGTYQQKPIDDGISGFWTDMGEPAWSNEEQTERLVMKHHLGMHDEIHNVYGLTWDKVVKEQFEKRNPNRRVFQMTRAAYAGLQRYTFGWTGDCGNGDDVLQGWGQLANQIPVILSAGLGVIPFTTCDITGYCGDIEDYHPFAELYTRWIQFGAFNPLSRIHHEGDNPVEPWLFGPEAEKNAKEAIELKYRLLPYIYTYAREAHDTGLPIMRPLFLEYPADMETFSTDGQFLFGQELLVAPVVKKGARTKNVYLPEGTWIDYNNKQTVYTGEQWTTVEAPLSCIPMFVKQGSIIPTMPVMNYTHEKPVYPLIFEVFPAPKGEEASFTLYEDEGEDLGYQRDEFAKTPVRFRTEEGGYLLSVGAREGKGYAVPAPRNFIFRMYLKTAPKGVTVQGKKVKKVKPERLEENPDDDTESMVWSWDKATGICSLRMPDRGEESRISLRL", "soluble on expression in E. coli": "not soluble"}
{"sequence": "MSLDTVVKVGFAAPLTGPNANYGKDLENGVKMALDDAKAQGVKINGQPVTFQLVAEDDQADPRIGVQVAQKLIDEGVSVVVGHFNSGTTIPASNLYEKAGLPDIDPAATNPTISSRGFKNMFMVISSDAQNAGTAGAYAVETTKAKRIAVIDDRTAFGQGEADEFVKAVKAHGGDIIDREYTTNQATDFKTQLTNLKAKNPDLIFVGALNPQAAGIMKQMNQLGIKAQYVGGGGVKDIDFIKLAGDVSEGAMAWEYGRPLDSTPVGAKFAERFKQKFGEDVLSYAPFGYDAAWAAIKAMQAANSTKPDDYRSKLQSISFEGITGHIEFNANGSLKNGSSTVYQVKNGQWVTVKTVSGEGHHHHHH", "soluble on expression in E. coli": "soluble"}
{"sequence": "MGSDKIHHHHHHMDKYTALIHDENFSTLTLNVSRYPKSLAYWEKLLNYIVKASAPICKSTEPQLLKLIRCTYSSMLNEFPYLENYYIDFALLEYKLGNVSMSHKIFQRGLQAFNQRSLLLWTSYLKFCNNVISHQKQLFKKYETAEEYVGLHFFSGEFWDLYLEQISSRCTSSKKYWNVLRKILEIPLHSFSKFYALWLQRIDDIMDLKQLSQLTSKDELLKKLKIDINYSGRKGPYLQDAKKKLKKITKEMYMVVQYQVLEIYSIFESKIYINYYTSPETLVSSDEIETWIKYLDYTITLQTDSLTHLNFQRALLPLAHYDLVWIKYSKWLINSKNDLLGAKNVLLMGLKFSLKKTEIIKLLYSVICKLNEYVLLRNLLEKIESSYSDNVENVDDFEIFWDYLQFKTFCQNSLYSSRYSDSQSNGLLNKELFDKVWKRLSCKEKKSGQEILLNNLVQFYSKDTVEFVEKNIFQKIIEFGWEYYLQNGMFWNCYCRLIYFDTSRSYLDKRQYIVRKIWPQIDKKFAQSVLPSLTEFCESYFPEEMDTLEEMFTEEP", "soluble on expression in E. coli": "not soluble"}
{"sequence": "MNILLCCAAGMSSSLIVTKMEKAAEARGIEVKIWAVSGSEVNSHIDEADVLLLGPQVRYLLPKMKELCKGKGVPVDVIQSVHYGLCNGEAILQAALSMKP", "soluble on expression in E. coli": "not soluble"}
{"sequence": "MRHDTRLSRVLHILIHMEKHEGAATSENIAAMLQTNPVVVRRTMAGLREHGYVSSEKGHGGGWVLAQPLTEITLLDIYRALGAPELFSIGLAGDNPNCVIEQAVNAALFDAMNEAENILLSRFGSITLSTLAEESIDRWSKLSNCPSAMEQL", "soluble on expression in E. coli": "not soluble"}
{"sequence": "AELVSDKALESAPTVGWASQNGFTTGGAAATSDNIYIVTNISEFTSALSAGAEAKIIQIKGTIDISGGTPYTDFADQKARSQINIPANTTVIGLGTDAKFINGSLIIDGTDGTNNVIIRNVYIQTPIDVEPHYEKGDGWNAEWDAMNITNGAHHVWIDHVTISDGNFTDDMYTTKDGETYVQHDGALDIKRGSDYVTISNSLIDQHDKTMLIGHSDSNGSQDKGKLHVTLFNNVFNRVTERAPRVRYGSIHSFNNVFKGDAKDPVYRYQYSFGIGTSGSVLSEGNSFTIANLSASKACKVVKKFNGSIFSDNGSVLNGSAVDLSGCGFSAYTSKIPYIYDVQPMTTELAQSITDNAGSGKL", "soluble on expression in E. coli": "soluble"}
{"sequence": "MGSDKIHHHHHHENLYFQGMIKLIATDIDGTLVKDGSLLIDPEYMSVIDRLIDKGIIFVVCSGRQFSSEFKLFAPIKHKLLYITDGGTVVRTPKEILKTYPMDEDIWKGMCRMVRDELPACDYFAATPDFCFAEDGGSPIFHLLRDSYGFEMREVDDITRLDRNDIIKFTVFHPDKCEELCTPVFIPAWNKKAHLAAAGKEWVDCNAKGVSKWTALSYLIDRFDLLPDEVCCFGDNLNDIEMLQNAGISYAVSNARQEVIAAAKHTCAPYWENGVLSVLKSFL", "soluble on expression in E. coli": "soluble"}
{"sequence": "MSLRRPYEALRGHFEKCLATPLRPMNLRTLAGNDKGYIHTAVEQLGARTARSYRAIYSEVQKRSLDREINARLSPLESICRREFECCVELSELAEVYLRKMERGEICDADTSQPNEIIDDAQVDSIMKGEGYGGSGNSGGDSSVKRLIDVLESLRPHENLFDIVVNEEWICSPNFNNWLSRFCTRRVSWRVIHEHLLHLVGPGRYSPIIRTDPNVGSILRHTGTVVVEQYVRSIQSIHGGSMFIHMEEQPDLFTRVPSGRLATSSKVDCPIFPTTSMPPAPSSRVIYSVEGHLEYVFRELMKNACLAMRSRTNSIELQVCFASNDTHVVVDVTDAAGGIAPDAVEKLWLFGWTTNSSFDNKMGGFGIGLPASKCYMDLWGGRIDLYTTEGVGTTVRVIFPKAPTEVFVPKGTEGHHHHHH", "soluble on expression in E. coli": "soluble"}
{"sequence": "MAHHHHHHMSTTQAALFPFRHHWRVPVTLAINTTVPNGAPSATESGGCTQPQSPGEQAAAHAAVTPDGIDAVVTDFVFAQSGRRLLLVRGDSPPDLRLCLSEDSPNGPLSGALGAGIAVEASPLQQAHRALCTGAELIHHVSTLRDQQLEGHRPCDGDTRASALELCVAGYPQGHPLDRTWGATSAAYSAPAEAAATGSVATRDSSVAAARQRSLEFLRAFEEDFDAAEHAFTAAVRVAKRRACVVSAEKRSSDISVDDGTPSAASGEPRERARHLCTPQAVMPELKEPCRTLGRLGAVRRLWTSSSIYAPYVRAACIHRMLHEKVLLRSPSEPEHRRIRSGSFHGGAAAPVIVTQMITTAQGFTGYVDEIQRGLRAWAATAGGGEQPEPAGDGPQQQHPVHAAAPTALTPPISVIPGVLLPHPTDVHVLLRSLYYTKVIPSARMQKALEVYASELMIAWRQLADEPPRRKREPALQDDTFLQALTESNGSAATLEVSEDRVAQVEARVREVRRCASCRLTSVWLSETVDLLHDLQRHGQARLHLFTMFNDKVGVRVAQLLAAYDAPRGASAEQ", "soluble on expression in E. coli": "not soluble"}
{"sequence": "GMIRLLYLLVKPAGMSDETFRAECLRHYEMSHDVPGLHKYEVRLVAEQPTDTHVPFFDIGHVDAIGECWFKDDAAYATYMASDIRKAWFEHGKTFIGQLKPFRTAPVAGDEPAS", "soluble on expression in E. coli": "soluble"}
{"sequence": "MGKEIQLKPKANVSSYVHFLLNYRNKFKEQQPSTYVGFKEFSRKCSEKWRSISKHEKAKYEALAKLDKARYQEEMMNYVGKRKKRRKRDPQAPRRPPSSFLLFCQDHYAQLKRENPNWSVVQVAKATGKMWSTATDLEKHPYEQRVALLRAKYFEELELYRKQCNARKKYRMSARNRCRGKRVRQS", "soluble on expression in E. coli": "not soluble"}
{"sequence": "MILPPIPTPFDREGRLDEEAFRELAQALEPLVDGLLVYGSNGEGVHLTPEERARGLRALRPRKPFLVGLMEETLPQAEGALLEAKAAGAMALLATPPRYYHGSLGAGLLRYYEALAEKMPLFLYHVPQNTKVDLPLEAVEALAPHPNVLGIKDSSGDLSRIAFYQARLQEFRVYTGHAPTFLGALALGAEGGILAAANLAPRAYRALLDHFREGRLAEAQELQKKLFPLGDLLAKGGVPLLKQALRHLGLPAGYPRPPYPAESPLWERFLPVLEGLKEEGWVL", "soluble on expression in E. coli": "soluble"}
{"sequence": "MGSDKIHHHHHHMNYRTIAKNGSTEETIKKSRFICQAKRITNEAEGRDFITQIKKEHYKARHSCSAMIIGENSDIKRSSDDGEPSGTAGIPMLSVLEKKQLTNLVLVVTRYFGGIKLGTGGLIRAYSGGAANTLKALGIVEVKKQTGLRLELTYPQYQTFANFLKEHQLQEYDTDFSVTVNTTIYVDKKDIEFTLDQLTEFYQGKLKSHVAGNQIIEVPVI", "soluble on expression in E. coli": "not soluble"}
{"sequence": "MAELDIGQHCQVQHCRQRDFLPFVCDGCSGIFCLEHRSKDSHGCSEVNVVKERPKTDEHKSY", "soluble on expression in E. coli": "soluble"}
{"sequence": "MHTFFVTSTGFGVGLTSTSLGLVRALEYGGLKAGFYKPVAQQHPGNSKLEYSTELISRTLGLAPPAPLPLATVEHLLGEGQIDDLMEDIVRRFKQASEGYDVMVVEGMVPTRHVSYASRVNTRLASSLDADIILVSSAEDDALQAITDRIEIQAQFFGGAQNPRLLGVILNKIRTDHSDDLFEQLKNHSTLFHQSSFQILGCIPWEDSLNAPRMADVVTQLQAQ", "soluble on expression in E. coli": "not soluble"}
{"sequence": "MEDGHISSWWVVDLGEEHQLMCNYYTFRQDGSRAFTRFWKFQGSMDGKTWTDLRVHEDDQTMCKAGQFASWPITAANALLPFRFFRLVLTGPTADTSTPWNFCICYLELYGYFR", "soluble on expression in E. coli": "not soluble"}
{"sequence": "MGSDKIHHHHHHMPGLPPPAVEPAVTSIKQEDLIQSVADALQYISYYHPVDYIKNLSAAYEREESPAAKDAIAQILINSRMCAEGHRPICQDTGIVTVFLEIGMNVRWDDATMGVEDMVNEGVRRAYNHPDNKLRASVLADPAGKRANTKDNTPAVVSTKIVPGDHLEVIVAAKGGGSEAKSKFAMLNPSDSIVDWVLKTVPTMGAGWCPPGMLGIGIGGTAEKAMLLAKEALMEPIDIVDLQARGASNRAEELRLELYEKVNALGIGAQGLGGLTTVLDIKVKDYPTHAANLPVALIPNCAATRHAHFTLDGSGPVMLDPPSLEDWPKLTYNPTNARRVNLDTITREEVASFKPGEVVLLNGKLLTGRDAAHKRMIDMLNRGETLPVDFTNRFIYYVGPVDPVRDEVVGPAGPTTATRMDKFTRQMLEQTGLLGMVGKSERGDAAIDAIRDNKAVYLMAVGGSAYLVSKAIKAARVLAFEDLGMEAIYEFEVKDMPVTVAVDSTGESVHKTGPRLWQSRIGKIPVVVE", "soluble on expression in E. coli": "not soluble"}
{"sequence": "RGSGWFAGFPVYSWFFGRDGLWMALAANMVGLAGLTYEHTNMLLKYSDDGRIPHEIGLADDGDQGYTIGETKFNTMYMSIDSSPLWLLASASMENWDRSRFEERHLKKVFDFIASCDTDGDGLIENDFRRGLIGWPETWANIRNGKTVDVNALWIEVLRIFGYRFGYDEYQKIRDRYMSTFFAGANSVDFVDMEYHEIRSAMQFVPGIFMRNEAIRSRIKDLSAGMMTPWGIRSMSVYDPMYDGGYHTGTVWPLMTGWFVIAAYKNGLPDLAFNQMRTFVDLAFSADDPGRINETYDAMMPQPTGQFAQGWSSSMLLLSVLQGMLNIDPLS", "soluble on expression in E. coli": "not soluble"}
